Results: patent publication US20210347873A1 (SHANGHAI PHARMAEXPLORER, published 2021)

Columns and labels:
[1] = biological target: human BLyS (full length, arginine to histidine at position 132) on CHO-K1 cells (human) (UniProt Q9Y275); test: flow cytometry, CHO-K1 hBLyS cells, antibody 66.7 nM
[2] = biological target: cynomolgus BLyS (full length, arginine to histidine at position 132) on CHO-K1 cells (cynomolgus); test: flow cytometry, CHO-K1 cynoBLyS cells, antibody 0.107 nM
[3] = biological target: cynomolgus BLyS (full length, arginine to histidine at position 132) on CHO-K1 cells (cynomolgus); test: flow cytometry, CHO-K1 cynoBLyS cells, antibody 0.00427 nM
[4] = biological target: biotinylated hBLyS-ECD (human) (UniProt Q9Y275); test: blocking ELISA: biotinylated hBLyS-ECD on coated BAFF R, antibody 0.8 nM
[5] = biological target: biotinylated hBLyS-ECD (human) (UniProt Q9Y275); test: ELISA, biotinylated hBLyS-ECD captured on streptavidin; antibody 0.107 nM
[6] = biological target: biotinylated hBLyS-ECD (human) (UniProt Q9Y275); test: ELISA, biotinylated hBLyS-ECD captured on streptavidin; antibody 0.0213 nM
[7] = biological target: biotinylated hBLyS-ECD (human) (UniProt Q9Y275); test: ELISA, biotinylated hBLyS-ECD captured on streptavidin; antibody 0.00427 nM
biotinylated hBLyS-ECD [8] = biological target: T1, biotinylated hBLyS-ECD (human, UniProt Q9Y275 134-285, biotinylated with Biotin-X-X-NHS (molar ratio 7:1); sites not stated); test: ELISA on captured biotinylated hBLyS-ECD; antibody 0.107 nM
T1 construct: also called biotinylated immunogen; biotinylated hBLvS-ECD
T1 sequence (Q9Y275 134-285): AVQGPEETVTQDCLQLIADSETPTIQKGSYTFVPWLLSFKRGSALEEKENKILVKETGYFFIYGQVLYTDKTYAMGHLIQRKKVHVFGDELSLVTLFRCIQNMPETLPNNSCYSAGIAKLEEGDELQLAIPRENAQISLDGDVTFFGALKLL

biotinylated hBLyS-ECD [9] = biological target: T1, biotinylated hBLyS-ECD; test: ELISA on captured biotinylated hBLyS-ECD; antibody 0.0213 nM
biotinylated hBLyS-ECD [10] = biological target: T1, biotinylated hBLyS-ECD; test: as above; remark: listed apart in the source
biotinylated hBLyS-ECD [11] = biological target: T1, biotinylated hBLyS-ECD; test: BAFF R-coated ELISA, biotinylated hBLyS-ECD bound in presence of antibody 0 nM
biotinylated hBLyS-ECD [12] = biological target: T1, biotinylated hBLyS-ECD; test: BAFF R-coated ELISA, biotinylated hBLyS-ECD bound in presence of antibody 4 nM
biotinylated hBLyS-ECD [13] = biological target: T1, biotinylated hBLyS-ECD; test: BAFF R-coated ELISA, biotinylated hBLyS-ECD bound in presence of antibody 20 nM
biotinylated hBLyS-ECD [14] = biological target: T1, biotinylated hBLyS-ECD; test: BAFF R-coated ELISA, biotinylated hBLyS-ECD bound in presence of antibody 0.8 nM
biotinylated hBLyS-ECD [15] = biological target: T2, biotinylated hBLyS-ECD (human, UniProt Q9Y275 134-285, biotinylated with Biotin-X-X-NHS (molar ratio 7:1); sites not stated); test: competitive ELISA on biotinylated hBLyS-ECD; competitor L9G7
T2 construct: also called biotinylated immunogen; BLyS protein
Description: (§1) The purified human BLyS antibody and hybridoma antibody were subjected to competitive enzyme-linked immunosorbent assay and the epitopes binding by different antibodies were analyzed.
(§2) Purified BLyS antibody was first diluted to a final concentration of 1.0 μg/mL with PBS, then aliquoted into a 96-well ELISA plate at 50 μL per well, and the plate was subsequently sealed with plastic film and incubated at 4° C. overnight. On the next day the plate was rinsed four times with the plate washing buffer [PBS buffer containing 0.05% (v/v) Tween20] and mixed with blocking solution [PBS buffer containing 0.05% (v/v) Tween20 and 1% (w/w) BSA], and then blocked at 37° C. for 1 hour. The blocking solution was removed, and the competitive antibody and IgG control were diluted to a final concentration of 40 μg/mL with PBS and then aliquoted into the 96-well ELISA plate at 50 μL per well. The biotinylated hBLyS-ECD was then diluted with PBS to a final concentration of 2 ng/mL and pipetted into the 96-well ELISA plate at 50 μL per well. The final concentration of competitive antibody and hBLyS-ECD was 20 μg/mL and 1 ng/mL, respectively. After incubation at 37° C. for 1 hour, the plate was rinsed four times with the plate washing buffer [PBS buffer containing 0.05% (v/v) Tween20]. 100 μL per well of HRP-labeled (horseradish peroxidase) streptavidin (purchased from Sigma) was added into the plate and the plate was incubated at 37° C. for 1 hour. The plate was then washed four times with the plate washing buffer [PBS buffer containing 0.05% (v/v) Tween20]. 100 μL of TMB substrate was aliquoted into each well and after incubation at room temperature for 5 minutes, 100 μL of stop solution (1.0 N HCl) was aliquoted into each well. A₄₅₀ₙₘ values were read by an ELISA plate reader (SpectraMax M5e, purchased from Molecular Device) and the results were shown in Tables 18A-18B. […] The data shown in the table is the inhibitory rate (%) of the binding level of the original antibody to hBLyS-ECD after addition of the competitive antibody.
T2 sequence (Q9Y275 134-285): as above

biotinylated hBLyS-ECD [16] = biological target: T2, biotinylated hBLyS-ECD; test: competitive ELISA on biotinylated hBLyS-ECD; competitor 2-1G11
Description: as §1, §2

Chain of cynomolgus BLyS (full length, arginine to histidine at position 132) on CHO-K1 cells (cynomolgus) (Q9Y275 other isoform, or with tags, fused parts or gaps limits assumed): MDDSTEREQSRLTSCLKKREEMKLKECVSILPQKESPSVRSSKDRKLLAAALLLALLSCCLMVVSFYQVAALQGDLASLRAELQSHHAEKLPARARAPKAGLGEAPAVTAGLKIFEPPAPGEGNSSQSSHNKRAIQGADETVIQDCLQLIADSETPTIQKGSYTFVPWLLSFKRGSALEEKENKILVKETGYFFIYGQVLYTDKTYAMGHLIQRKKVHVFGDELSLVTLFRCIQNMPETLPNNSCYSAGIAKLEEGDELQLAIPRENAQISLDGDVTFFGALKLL
Chain of biotinylated hBLyS-ECD (human) (Q9Y275 134-285): as the sequence (Q9Y275 134-285) above
Chain of human BLyS (full length, arginine to histidine at position 132) on CHO-K1 cells (human) (Q9Y275 whole entry R130H): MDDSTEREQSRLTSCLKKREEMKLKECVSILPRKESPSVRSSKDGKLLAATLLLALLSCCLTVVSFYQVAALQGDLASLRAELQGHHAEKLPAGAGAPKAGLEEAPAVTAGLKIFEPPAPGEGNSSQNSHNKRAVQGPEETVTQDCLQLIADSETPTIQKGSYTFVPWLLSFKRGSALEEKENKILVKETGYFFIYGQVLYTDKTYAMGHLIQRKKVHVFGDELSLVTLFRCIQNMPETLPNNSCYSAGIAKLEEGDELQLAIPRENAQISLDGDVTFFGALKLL

mIgG Control (antibody)
MFI [1]: 33.6 MFI
MFI [2]: 19.7 MFI
MFI [3]: 20.4 MFI
OD450 nm [4]: 1.4 OD450 nm
OD450 nm [5]: 0.0562
OD450 nm [6]: 0.0595
OD450 nm [7]: 0.0695

hIgG Control (antibody)
MFI [1]: 52 MFI
MFI [2]: 22.8 MFI
MFI [3]: 22 MFI
OD450 nm [4]: 1.14 OD450 nm
OD450 nm [5]: 0.0905
OD450 nm [6]: 0.111
OD450 nm [7]: 0.108

B1: c8E7D9C7F5 (antibody, V domains shown)
VH: QVQLQQSGVELARPGASVKLSCKASGYTFTSYGISWVKQRTGQALEWIGEIYPRSGNTYYNEKFKGKATLTADKSSSTAYMELRSLTSEDSAVYFCARSGPITTLVATDYGMDYWGQGTSVTVSS
VL: DIVLTQSPASLAVSLGQRATISCRASKSVSTSSYSYMHWYQQKPGQPPKLLIKFASNLESGVPARFSGSGSGTDFTLNIHPVEEEDAATYYCQHSREFPYTFGGGTKLEIK
notes: also called chimeric antibody c8E7D9C7F5
OD450 nm (biotinylated hBLyS-ECD [8]): 1.7 OD450 nm
OD450 nm (biotinylated hBLyS-ECD [9]): 0.574 OD450 nm
OD450 nm (biotinylated hBLyS-ECD [10]): 0.508 OD450 nm
OD450 nm (biotinylated hBLyS-ECD [11]): 1.95 OD450 nm
OD450 nm (biotinylated hBLyS-ECD [12]): 1.04 OD450 nm
OD450 nm (biotinylated hBLyS-ECD [13]): 0.66 OD450 nm
OD450 nm (biotinylated hBLyS-ECD [14]): 1.56 OD450 nm

B2: c97A3C2H4 (antibody, V domains shown)
VH: EVKLVESGGGLVQPGGSLKLSCAASGFTFSTYTMSWVRQTPEKRLEWVAYISYGGGSTSYPDTVKGRFTISRDNAKNTLYLQMSSLKSEDTAIYYCTRHVTVVENSMDYWGQGTSVTVSS
VL: DILLTQSPDILSVSPGERVSFSCRASQSIGTSIHWYQQRTNGSPRLLIKYVSESFSGTPSRFSGSGSGTAFTLTINSVESEDIADYYCQQTHSWPWTFGGGTKLEIK
notes: also called chimeric antibody c97A3C2H4
OD450 nm (biotinylated hBLyS-ECD [8]): 2.35 OD450 nm
OD450 nm (biotinylated hBLyS-ECD [9]): 0.936 OD450 nm
OD450 nm (biotinylated hBLyS-ECD [10]): 0.374 OD450 nm
OD450 nm (biotinylated hBLyS-ECD [11]): 1.91 OD450 nm
OD450 nm (biotinylated hBLyS-ECD [12]): 1.07 OD450 nm
OD450 nm (biotinylated hBLyS-ECD [13]): 0.717 OD450 nm
OD450 nm (biotinylated hBLyS-ECD [14]): 1.47 OD450 nm

B3: L1D12 (antibody, V domains shown)
VH: QVQLVQSGGGLVQPGGSLRLSCAASGFTVSSNYMSWVRQAPGKGLEWVSVIYSGGSTYYADSVKGRFTISRDNSKNTLYLQMNSLRAEDTAVYYCARGFHDILTGYGMDVWGQGTTVTVSS
VL: SSELTQDPAVSVALGQTVRITCQGDSLRNYYAGWYQQKPGQAPVLVIYGKNNRPSGIPDRFSGSSSGNTASLTITGTQAEDEADYYCSSRDNSGTHLVEFGGGTKLTVL
notes: From a human naive scFv phage library; also called human BLyS antibody L1D12; LID12
inhibitory rate (%) (biotinylated hBLyS-ECD [15]): 90%
inhibitory rate (%) (biotinylated hBLyS-ECD [16]): 94%

B4: 2-1G11 (antibody, V domains shown)
VH: EVQLVESRGGVVQPGRSLRLSCAASGFTFSSYGMHWVRQAPGKGLEWVAVISYDGSNKYYADSVKGRFTISRDNSKNTLYLQMNSLRAEDAAVYYCARDRVDILTGYSIYGMDVWGQGTTVTVSS
VL: EIVMTQSPATLSLSPGERATLSCRASQSVSSYLAWYQQKPGQAPRLLIYDASKRATGIPARFSGSGSGTDFTLTISSLEPEDFAVYYCQQRSNWPLTFGGGTKVEIK
notes: From a human naive scFv phage library; also called human BLyS antibody 2-1G11
inhibitory rate (%) (biotinylated hBLyS-ECD [15]): 79%
inhibitory rate (%) (biotinylated hBLyS-ECD [16]): 82%

B5: L9G7 (antibody, V domains shown)
VH: QIQLVQSGAEVKKPGASVKVSCKASGYTFTSYGISWVRQAPGQGLEWMGWISAYNGNTNYAQKLQGRVTMTTDTSTSTAYMELRSLRSDDTAVYYCARTYYDILTGYYYYGMDVWGQGTTVTVSS
VL: EIVLTQSPGTLSLSPGERATLSCRTSQSVDTYLAWYQQKPGQAPRLLIYDASNRATGIPARFSGSGSGTDFTLTISSLEPEDFAVYYCQQRSNWPLTFGGGTKVEIK
notes: From a human naive scFv phage library; also called human BLyS antibody L9G7
inhibitory rate (%) (biotinylated hBLyS-ECD [15]): 95%
inhibitory rate (%) (biotinylated hBLyS-ECD [16]): 96%
